# ± gives the uncertainty stated by the source.
# B1: Membrane-associated guanylate kinase, WW and PDZ domain-containing protein 2, residues 601 to 682; numbered along this chain, Q86UL8 (parent)
# chain: AELMTLTIVKGAQGFGFTIADSPTGQRVKQILDIQGCPGLCEGDLIVEINQQNVQNLSHTEVVDILKDCPIGSETSLIIHRG
# Variants of: B1
# Assay: abundance fitness (aPCA) (normalised: wild type 0, dead -1); higher = more abundant; growth selection in yeast, the domain comes from the species named
# Conditions: Homo sapiens
row,Variant,abundance fitness
1,G25E,-0.127 ± 0.061
2,G25A,-0.046 ± 0.041
3,G25L,-0.538 ± 0.056
4,G25K,-0.267 ± 0.089
5,G25S,-0.185 ± 0.051
6,G25M,-0.191 ± 0.062
7,G25D,-0.766 ± 0.23
8,G25W,-0.531 ± 0.069
9,G25C,-0.17 ± 0.08
10,G25F,-0.314 ± 0.19
11,K29V,-0.122 ± 0.086
12,K29D,0.108 ± 0.28
13,K29L,-0.212 ± 0.099
14,K29A,-0.095 ± 0.1
15,K29C,-0.091 ± 0.13
16,K29Q,-0.053 ± 0.13
17,K29I,-0.395 ± 0.29
18,K29H,0.181 ± 0.33
19,K29G,-0.004 ± 0.087
20,K29S,0.039 ± 0.2
21,K29R,-0.047 ± 0.062

row,Variant,abundance fitness
1,K29E,0.084 ± 0.15
2,G43A,-0.086 ± 0.097
3,G43C,-0.187 ± 0.2
4,I34D,-0.036 ± 0.08
5,I34G,-0.021 ± 0.05
6,I34Y,0.013 ± 0.093
7,I34S,-0.017 ± 0.063
8,I34A,-0.026 ± 0.053
9,I34N,0.034 ± 0.13
10,I34R,-0.092 ± 0.043
11,I34T,-0.072 ± 0.067
12,I34L,0.007 ± 0.064
13,I34K,-0.007 ± 0.076
14,I34F,-0.066 ± 0.17
15,I34H,-0.153 ± 0.092
16,I34M,-0.061 ± 0.066
17,I34P,-0.072 ± 0.068
18,I34Q,-0.031 ± 0.081
19,I34W,-0.101 ± 0.063
20,I34E,-0.045 ± 0.07
21,I34V,0.017 ± 0.059

row,Variant,abundance fitness
1,I34C,-0.076 ± 0.086
2,S22C,-0.117 ± 0.2
3,S22A,0.075 ± 0.1
4,S22E,-0.114 ± 0.097
5,S22R,0.03 ± 0.13
6,S22L,-0.049 ± 0.085
7,S22P,-0.671 ± 0.19
8,S22K,0.062 ± 0.2
9,S22V,-0.063 ± 0.13
10,S22D,0.048 ± 0.27
11,S22Y,-0.04 ± 0.23
12,S22F,-0.105 ± 0.094
13,S22G,0.03 ± 0.061
14,S22Q,0.023 ± 0.1
15,S22N,-0.39 ± 0.17
16,S22W,-0.056 ± 0.15
17,S22T,-0.076 ± 0.11
18,G39S,-0.035 ± 0.084
19,G39P,-0.083 ± 0.13
20,G39H,0.069 ± 0.25
21,G39V,-0.392 ± 0.11

row,Variant,abundance fitness
1,G39K,-0.192 ± 0.2
2,G39W,-0.211 ± 0.25
3,G39R,-0.167 ± 0.16
4,G39M,-0.192 ± 0.16
5,G39L,-0.22 ± 0.14
6,G39T,-0.017 ± 0.2
7,G39D,-0.197 ± 0.17
8,G39N,-0.043 ± 0.24
9,G39E,-0.255 ± 0.14
10,G39A,-0.052 ± 0.1
11,E42G,-0.114 ± 0.052
12,E42V,-0.062 ± 0.05
13,E42S,-0.049 ± 0.057
14,E42M,0.036 ± 0.063
15,E42N,-0.087 ± 0.11
16,E42L,-0.028 ± 0.05
17,E42H,-0.23 ± 0.2
18,E42D,-0.152 ± 0.076
19,E42K,-0.016 ± 0.069
20,E42F,-0.123 ± 0.1
21,E42C,-0.123 ± 0.064

# — the Human Domainome abundance scans (Beltran et al. 2025)
